According to publication PMC8766471, “Mutations affecting the N-terminal domains of SHANK3 point to different pathomechanisms in neurodevelopmental disorders” (Scientific Reports, 2022):

B1: Shank3 Ank repeats (residues 99-348), WT, recombinant (domain or fragment, rat, UniProt Q9JLU4 99-348, looked up)
chain: QNLIDDKQFAKLHTKANLKKFMDYVQLHSTDKVARLLDKGLDPNFHDPDSGECPLSLAAQLDNATDLLKVLRNGGAHLDFRTRDGLTAVHCATRQRNAGALTTLLDLGASPDYKDSRGLTPLYHSALGGGDALCCELLLHDHAQLGTTDENGWQEIHQACRFGHVQHLEHLLFYGANMGAQNASGNTALHICALYNQESCARVLLFRGANKDVRNYNSQTAFQVAIIAGNFELAEVIKTHKDSDVVPFRE
notes: Shank3, rat, Ank repeats, residues 99-348; expressed from pET-SUMO; also called WT Ank; WT Ank domain; source: E. coli BL21*(DE3), purified (HisTrap HP, SUMO protease, reverse HisTrap pass)
B2: isolated SPN domain of Shank3, recombinant (domain or fragment, rat, UniProt Q9JLU4 1-92, looked up)
chain: MDGPGASAVVVRVGIPDLQQTKCLRLDPTAPVWAAKQRVLCALNHSLQDALNYGLFQPPSRGRAGKFLDEERLLQDYPPNLDTPLPYLEFRY
notes: Shank3 SPN domain, isolated; the methods of expression list only residues 1-348 and 99-348; also called WT SPN

Key:
[1] = target: B2; test: ITC; 25 °C; 20 mM Tris pH 7.5, 1 M NaCl, 0.5 mM TCEP; 25 µM SPN in the cell, 400 µM WT Ank or P141A Ank in the syringe; single-site-binding model; details: both partners purified
[2] = target: B1; test: as above; details: both partners purified

| dH [1] [kcal/mol] | Kd [2] [µM] | Binder |
| --- | --- | --- |
| -3.7 | – | B1 |
| – | 19 | B2 |
